The data set deals with the molecule itself. As to the kind of experiment: SEC. Background: Size exclusion chromatography separates by hydrodynamic size, large species first.

B1: EBOV VP35 fused with maltose-binding protein at its N-terminal (MBP–VP35) (natural protein)
chain: MTTRTKGRGHTAATTQNDRMPGPELSGWISEQLMTGRIPVSDIFCDIENNPGLCYASQMQQTKPNPKTRNSQTQTDPICNHSFEEVVQTLASLATVVQQQTIASESLEQRITSLENGLKPVYDMAKTISSLNRVCAEMVAKYDLLVMTTGRATATAAATEAYWAEHGQPPPGPSLYEESAIRGKIESRDETVPQSVREAFNNLNSTTSLTEENFGKPDISAKDLRNIMYDHLPGFGTAFHQLVQVICKLGKDSNSLDIIHAEFQASLAEGDSPQCALIQITKRVPIFQDAAPPVIHIRSRGDIPRACQKSLRPVPPSPKIDRGWVCVFQLQDGKTLGLKI
On to B1, for which the binding result is listed as “binds”.

For the origin of these results see paper PMC6582406 (Nucleic Acids Research, 2019).
